Laboratory results: PMC6342966

Molecular target: His6-Z_GFP 11 (GFP 11 genetically fused to the C-terminus of the IgG binding Z domain derived from protein A)
Experiment: split reporter (BiFC, NanoBiT); split-GFP fluorescence complementation in solution, 96-well plate, TNG buffer, 225 µM His6-Z_GFP 11 and 0.2 µM GFP 1–10 variant, 25 °C, excitation 488 nm, emission 535 nm, controls without His6-Z_GFP 11 subtracted

Substance: GFP 1–10 OPT (non-maturated) (domain or fragment)
- rate of increase of the fluorescent signal after adding His6-Z GFP 11: 0.5 a.u./second

Substance: GFP 1–10^mat (GFP 1–10 with maturated chromophore) (domain or fragment)
- rate of increase of the fluorescent signal after adding His6-Z GFP 11, additional hour after the first two minutes: 6 a.u./sec
- rate of increase of the fluorescent signal after adding His6-Z GFP 11, first two minutes: 83 a.u./sec
